Data on four substances can be found in article doi:10.1101/597906.

Assay [1] concerns the target polymerized microtubules. Description: single-molecule TIRF microscopy motility assay.
For assay [2], the target named is polymerized microtubules. Description: single-molecule TIRF microscopy motility assay. This is another data set of the same source.

Like-named read-outs stand apart in the source and are kept apart here.

For “full-length human KIF1A fused to a C-terminal mScarlet-strepII tag (from UniProt Q12756 1-1690) (natural protein)”, the landing rate (molecules bound to microtubules per length and time) was 0.012 /μm/sec with polymerized microtubules [1] and 0.002 /μm/sec with polymerized microtubules [2]. Turning to “full-length human KIF1A(A255V) fused to a C-terminal mScarlet-strepII tag (from UniProt Q12756 1-1690) (natural protein)”, the landing rate (molecules bound to microtubules per length and time) with polymerized microtubules [2] was 0.024 /μm/sec.

Regarding “full-length human KIF1A(R350G) fused to a C-terminal mScarlet-strepII tag (from UniProt Q12756 1-1690) (natural protein)”, the landing rate (molecules bound to microtubules per length and time) with polymerized microtubules [2] is 0.025 /μm/sec. Same read-out and setting: under “full-length human KIF1A(V8M) fused to a C-terminal mScarlet-strepII tag (from UniProt Q12756 1-1690) (natural protein)” stands 0.039 /μm/sec.
